Data reported in patent publication US9115185.
pIC50: −log10 of the molar value.

Experiments:
[1] = target: HLA-DR2 (DRB1*0201 [sic]), purified from B-lymphoblastic cell line IWB (human); assay: competition with fluorescent HA308-319 on purified HLA-DR2
[2] = target: HLA-DR1 (DRB*0101), purified from B-lymphoblastic cell line LG2.1 (human); assay: competition with fluorescent HA308-319 on purified HLA-DR1

Substance: HPV16 E2 peptide 316-345
- pIC50 [1]: 4.26
- pIC50 [2]: 5.22

Substance: HPV16 E2 peptide 271-300
- pIC50 [1]: 4.19
- pIC50 [2]: 4.66

Substance: HPV16 E2 peptide 286-315
- pIC50 [2]: 5.10

Substance: HPV16 E2 peptide 331-365
- pIC50 [1]: 4.70
- pIC50 [2]: 5.10

Substance: HPV16 E2 peptide 301-330
- pIC50 [1]: 5.10
- pIC50 [2]: 5.22
